IntAct's records for PubMed 17380123

B1: Zinc finger HIT domain-containing protein 1 (Homo sapiens), O43257 (parent)
chain: MVEKKTSVRSQDPGQRRVLDRAARQRRINRQLEALENDNFQDDPHAGLPQLGKRLPQFDDDADTGKKKKKTRGDHFKLRFRKNFQALLEEQNLSVAEGPNYLTACAGPPSRPQRPFCAVCGFPSPYTCVSCGARYCTVRCLGTHQETRCLKWTV

Variants of: B1
Settings: with mk14_human MAPK14, Q16539
Sequence of mk14_human MAPK14, Q16539 (Q16539 whole entry): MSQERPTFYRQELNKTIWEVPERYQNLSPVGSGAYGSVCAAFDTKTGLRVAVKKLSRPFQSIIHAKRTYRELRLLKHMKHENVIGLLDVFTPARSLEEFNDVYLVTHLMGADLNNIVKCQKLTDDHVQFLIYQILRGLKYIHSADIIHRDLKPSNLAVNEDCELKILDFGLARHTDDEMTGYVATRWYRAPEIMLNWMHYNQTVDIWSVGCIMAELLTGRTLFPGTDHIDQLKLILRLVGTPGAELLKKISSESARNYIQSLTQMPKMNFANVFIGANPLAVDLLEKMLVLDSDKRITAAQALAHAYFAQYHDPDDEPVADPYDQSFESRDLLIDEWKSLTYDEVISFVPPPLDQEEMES

| Variant | effect of a mutation on the interaction |
| --- | --- |
| T103A | disrupting interaction |
